This note sets out measurements from patent publication US20210403552A1 (SHANGHAI GENBASE BIOTECHNOLOGY, published 2021).

Read-outs that look alike come from different tables or passages of the source.

Assay [1] concerns the target human CLDN18.2 (human). The assay is described as follows: cell-based or functional assay.
The target of assay [2] is human CLDN18.2 (human). The assay is described as follows: cell-based or functional assay. The source holds these as a separate data set.
Assay [3] addresses human CLDN18.2 (human). Nature of the assay: cell-based or functional assay. The source holds these as a separate data set.
In assay [4] the target is human CLDN18.2 (human). Nature of the assay: cell-based or functional assay. The source holds these as a separate data set.
The target in assay [5] is T1, human CLDN18.2 (human).
T1 construct: over-expressed on HEK293T or OCUM-1 cells by lentivirus; KATO-III and NUGC4 gastric cancer cells express it naturally; also called hCLDN18.2; hCLDNA18.2
The assay is described as follows: imaging cytometry (% fluorescent cells), HEK293T-hCLDN18.2 cells. As to the method:
(§1) 10,000 cells were plated in 100 μL of DMEM containing 10% FBS per well in a flat-bottomed 96-well plate. After the cells adhered or were settled to the bottom of the wells overnight, the supernatant was removed on the next day. 3-Fold gradient dilution of antibody was performed by diluting 1/3 of the total volume (i.e., 100 μL) in 200 μL of DMEM. 100 μL of the diluted antibody (the supernatants of fused clones or subclones was used in the screening) was added to each well of the cell plate, 100 μL of DMEM was added to the corresponding negative control well, and incubation was carried out for 1 hour at room temperature. After removing the supernatant, 100 μL of secondary antibody (5 μg/mL, diluted in DMEM) was added to each well, and incubated at room temperature for 0.5 hours. The supernatant was removed after staining, followed by washing with PBS once. 100 μL of PBS was added to each well, and then reading was carried out on the cytometer.
(§2) A full-field scanning cytometer (Nexcelom, Celigo® Image Cytometer) was used to measure the readings of the experimental plate. During the measurement, high-speed scanning imaging of the cells in the well was simultaneously performed in the green fluorescent channel corresponding to the secondary antibody and in the bright field channel. The cells that bound the antibody were counted in the image obtained from the green fluorescent channel under the parameters set in accordance with the morphology and fluorescence intensity of the fluorescently labeled cells, and the adhered cells were counted in the image obtained from the bright field channel under the parameters set in accordance with the morphology of the cells. […] The data analysis was performed using GraphPad.

The target in assay [6] is T1, human CLDN18.2. Described as above. As to the method: as §1, §2
The source holds these as a separate data set.

Assay [7] addresses T1, human CLDN18.2. Nature of the assay: cell-based or functional assay. The source holds these as a separate data set.
In assay [8] the target is T1, human CLDN18.2. The assay is described as follows: imaging cytometry (% fluorescent cells), OCUM1-hCLDN18.2 cells.
Text: (§3) HEK293T-hCLDN18.2 and OCUM-1-hCLDN18.2 expressing human CLDN18.2 (hCLDN18.2), or HEK293T-mCLDN18.2 expressing mouse CLDN18.2 (mCLDN18.2) and the corresponding negative control cell line HEK293T were used; or HEK293T-hCLDN18.1 and CHOS-hCLDN18.1 expressing human CLDN18.1 (hCLDN18.1) were used. DyLight488 goat anti-mouse IgG (Abcam, Catalog No. ab97015) or DyLight488 goat anti-human IgG (Abcam, Catalog No. ab97003) was used as secondary antibody. Binding curves were generated by using the following method.
as §1
(§4) A full-field scanning cytometer (Nexcelom, Celigo® Image Cytometer) was used to measure the readings of the experimental plate. During the measurement, high-speed scanning imaging of the cells in the well was simultaneously performed in the green fluorescent channel corresponding to the secondary antibody and in the bright field channel. The cells that bound the antibody were counted in the image obtained from the green fluorescent channel under the parameters set in accordance with the morphology and fluorescence intensity of the fluorescently labeled cells, and the adhered cells were counted in the image obtained from the bright field channel under the parameters set in accordance with the morphology of the cells.

The target in assay [9] is T2, mouse CLDN18.2 (mouse, UniProt P56857 10-264).
T2 construct: over-expressed on HEK293T cells by lentivirus; also called mCLDN18.2; murine CLDN18.2
T2 chain: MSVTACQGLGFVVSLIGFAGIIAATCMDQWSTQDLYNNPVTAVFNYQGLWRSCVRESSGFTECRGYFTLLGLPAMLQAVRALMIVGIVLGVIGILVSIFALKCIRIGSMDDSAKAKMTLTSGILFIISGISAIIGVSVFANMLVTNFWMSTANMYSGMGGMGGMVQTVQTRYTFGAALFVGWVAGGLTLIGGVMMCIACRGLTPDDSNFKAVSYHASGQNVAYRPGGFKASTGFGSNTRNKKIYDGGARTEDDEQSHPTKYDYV
Nature of the assay: imaging cytometry (% fluorescent cells), HEK293-mCLDN18.2 cells.
Text: as §3, §1, §4

Assay [10] deals with T3, human CLDN18.1 (human, UniProt P56856 1-261).
T3 construct: over-expressed on HEK293T or CHOS cells by lentivirus; also called hCLDN18.1
The assay is described as follows: imaging cytometry (% fluorescent cells), CHOS-hCLDN18.1 cells.
Text: as §3
(§5) 10,000 cells were plated in 100 μL of DMEM containing 10% FBS per well in a flat-bottomed 96-well plate. After the cells adhered or were settled to the bottom of the wells overnight, the supernatant was removed on the next day. […] 100 μL of PBS was added to each well, and then reading was carried out on the cytometer.
(§6) A full-field scanning cytometer (Nexcelom, Celigo® Image Cytometer) was used to measure the readings of the experimental plate. […] The cells that bound the antibody were counted in the image obtained from the green fluorescent channel under the parameters set in accordance with the morphology and fluorescence intensity of the fluorescently labeled cells, and the adhered cells were counted in the image obtained from the bright field channel under the parameters set in accordance with the morphology of the cells.

For assay [11], the target named is T1, human CLDN18.2. The assay is described as follows: imaging cytometry (% fluorescent cells), HEK293-hCLDN18.2 cells.
Text: as §3, §1, §4

For assay [12], the target named is T3, human CLDN18.1. The assay is described as follows: imaging cytometry (% fluorescent cells), HEK293-hCLDN18.1 cells.
Text: as §3, §5, §6

T3 sequence (P56856 whole entry): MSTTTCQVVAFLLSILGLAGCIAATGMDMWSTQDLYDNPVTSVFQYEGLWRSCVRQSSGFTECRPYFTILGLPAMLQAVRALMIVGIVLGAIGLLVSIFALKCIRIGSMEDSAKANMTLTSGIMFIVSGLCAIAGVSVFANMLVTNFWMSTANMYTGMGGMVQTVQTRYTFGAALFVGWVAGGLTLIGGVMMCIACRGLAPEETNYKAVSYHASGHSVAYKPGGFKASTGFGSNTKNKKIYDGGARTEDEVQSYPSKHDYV

B1: 44F7-chIgG1 (antibody, V domains shown)
VH: QVQLQQSGAELVRPGASVKMSCKASGYTFTSYNMHWVKQAPRQGLEWIGTIYPGNGDTSYNQKFKGKATLTVDKSSSTAYMQLSSLTSEDSAVYFCARGGYYGNSLDYWGQGTTLTVSS
VL: DIQMTQSPSSLTVTAGEKVTMSCKSSQSLLNSGNQKNYLTWYQQKPGQPPKLLIYWASTRESGVPDRFTGSGSGTDFTLTISSVQAEDLAVYYCQNAYYYPFTFGSGTKLEIKR
notes: human-mouse chimeric antibody, human IgG1/kappa constant regions; also called parental chimeric antibody
One may read the EC50 as the concentration at which the effect is half-maximal. Low readings indicate greater potency, high ones weaker potency. In the case of B1, in [1], the “ADCC EC50, HEK293T-hCLDN18.2 target cells, human PBMC effectors” value turned out to be 0.0078 µg/mL; the “ADCC EC50, KATO-III target cells, human PBMC effectors” value (“ADCC EC50, KATO-III target cells” for short) came to 0.099 µg/mL; the “ADCC EC50, NUGC4 target cells, human PBMC effectors” value came to 0.047 µg/mL. Also, the “ADCC EC50, KATO-III target cells” value in [2] stood at 0.0117 µg/mL. Also, the “CDC EC50, KATO-III target cells, human serum” value in [3] amounted to 0.52 µg/mL. Also, in [4], the “CDC EC50, HEK293T-hCLDN18.2 target cells, human serum” value worked out at 0.6 µg/mL and the “CDC EC50, KATO-III target cells, human serum” value was 0.18 µg/mL. In addition, the midpoint of the response in assay [5], the EC50, lay at 0.012 µg/mL. For the same molecule, the EC50 in [6] was 0.027 µg/mL. Besides, in assay [7], the “Internalization percentage (%), HEK293T-hCLDN18.2 cells, flow cytometry, 10 µg/mL antibody” value is -1.5%.

B2: 175D10 (antibody, human IgG1, kappa, V domains shown)
VH: QVQLQQPGAELVRPGASVKLSCKASGYTFTSYWINWVKQRPGQGLEWIGNIYPSDSYTNYNQKFKDKATLTVDKSSSTAYMQLSSPTSEDSAVYYCTRSWRGNSFDYWGQGTTLTVSS
VL: DIVMTQSPSSLTVTAGEKVTMSCKSSQSLLNSGNQKNYLTWYQQKPGQPPKLLIYWASTRESGVPDRFTGSGSGTDFTLTISSVQAEDLAVYYCQNDYSYPFTFGSGTKLEIKR
Consider B2, for which the “ADCC EC50, HEK293T-hCLDN18.2 target cells, human PBMC effectors” value in [1] was found to be 0.058 µg/mL. Further, the “ADCC EC50, KATO-III target cells” value in [1] was found to be 2.4 µg/mL; in assay [2], 0.788 µg/mL. The “CDC EC50, KATO-III target cells, human serum” value in [3] turned out to be 34.8 µg/mL. In assay [4], the “CDC EC50, HEK293T-hCLDN18.2 target cells, human serum” value stood at 18.2 µg/mL. Moreover, the EC50 in [8] worked out at 6.54 µg/mL; in [5], 0.035 µg/mL; in assay [6] it was 0.536 µg/mL; in [9] it was 0.81 µg/mL.

B3: 1D10 (antibody, V domains shown)
VH: QVQLQQPGAELVKPGASVKLSCKASGYTFTSYWMHWVKQRPGQGLEWIGMIYPNSGSINYNEKFKNKATLTVDKSSSTAYMQLSSLTSEDSAVYFCSVYFDYWGQGTTLTVSS
VL: DIQGTQSPSSLSASLGERVSLTCRASQDIGSSLNWLQQEPDGTIKRLIYATSSLDSGVPKRFSVSRSGSDYSLTISSLESEDFVDYYCLQYASSPPTFGGGTKLEIK
notes: murine monoclonal antibody purified from hybridoma culture supernatant; also called ID10
Turning to B3, the EC50 worked out at 0.092 µg/mL in assay [10]; 0.018 µg/mL in assay [11]; 0.041 µg/mL in assay [12]; 0.026 µg/mL in assay [8]; 0.691 µg/mL in assay [9].

B4: 5F9 (antibody, V domains shown)
VH: QVQLQQSGAELVKPGASVKLSCKASGYTFTSYWMHWVKQRPGQGLEWIGMIHPNSVSTNYNEKFKSKATLTVDKSSSTAYMQLSSLTSEDSAVYYCAVYFDYWGQGTTLTVSS
VL: DIQVTQSPSSLSASLGERVSLTCRASQDIGSSLNWLQQEPDGTIKRLIYASSSLNSGVPKRFSVSRSGSDYSLTISSLESEDFVDYYCLQYATSPPTFGGGTKLEIK
notes: murine monoclonal antibody purified from hybridoma culture supernatant
Consider B4, for which the EC50 came to 0.091 µg/mL in assay [11], 0.714 µg/mL in assay [12], 0.068 µg/mL in [8] and 0.179 µg/mL in assay [9].
